From the nanobody polyreactivity screen of Harvey et al. (2022)

Assay: yeast display, Sf9 membrane polyspecificity reagent, FACS + sequencing; frameworks hold sequencing errors
In short: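 Nanobodies came from a synthetic yeast display library in Saccharomyces cerevisiae BJ5465, induced with galactose for 36–48 hours and stained for 1 hour at 4 °C with 10% biotinylated, detergent-solubilized Sf9 membrane reagent. Cells were enriched on streptavidin microbeads and then FACS-sorted, with low and high (top ~1%) gates set on anti-HA fluorescence for expression and streptavidin fluorescence for reagent binding. Each polyreactivity label reflects the gate a clone came from. Genes were amplified by colony PCR, sequenced by MiSeq 2 × 250 and filtered by CDR length.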
In the case of “QVQLVESGGGLVQAGGSLRLSCAASGSIFYAYAMGWYIQAPGKERELVAGINTRGGSTYYADSVKGRFTISRDNAKNTVYLQMNSLKPEDTAVYYCAKGTAPIPYRGRVGTSKSDYWGQGTQVTVSS”, the “polyreactivity (PSR sort gate)” value is reported as “low polyreactivity”. In the case of “QVQLVESGGGLVQAGGSLRLSCAASGSIFYAYTMGWYRQAPGKERELVARITQSDDGTYYADSVKGRFTISRDNAKNTVYLQMNSLKPEDTAVYYCAVVFWQLAHRYDYWGQGTQVTVSS”, the “polyreactivity (PSR sort gate)” value is reported as “low polyreactivity”. For “QVQLVESGGGLVQAGGSLRLSCAASGSIFYENAMGWYRQAPGKERELVAAISRSGGSTYYADSVKGRFTISRDNAKNTVYLQMNSLKPEDTAVYYCAADVYVFIGDYWGQGTQVTVSS”, the “polyreactivity (PSR sort gate)” value was “low polyreactivity”. With “QVQLVESGGGLVQAGGSLRLSCAASGSIFYENNMGWYRQAPGKEREFVAAISRSGGSTYYADSVKRRFTISRDNAKNTVYLQLNSLKPEDTAVYYCAARSRPGYAVYYWGQGTQVTVSS” the “polyreactivity (PSR sort gate)” value was “high polyreactivity”. In the case of “QVQLVESGGGLVQAGGSLRLSCAASGSIFYENTMGWYRQAPGKEREFVAAISRSGGSTYYADSEKGRYTISRDNAKNTVYLQRNSLKPEDTAVYYCAAKSRRYHHEYYYWGQGTQVTVSS”, the “polyreactivity (PSR sort gate)” value is reported as “high polyreactivity”. For “QVQLVESGGGLVQAGGSLRLSCAASGSIFYENVMGWYRQAPGKERELVAGISRSGGRTYYADSVKGRFTISRDNAKNTVYLQMNSLIPEDTAVYYCNAARVYLSEWGQGTQVTVSS”, the “polyreactivity (PSR sort gate)” value was “high polyreactivity”. With “QVQLVESGGGLVQAGGSLRLSCAASGSIFYFNDMGWYRQAPGKEREFVARITRSGSSTSYADSVKGRFTISRDNAKNTVYLQMNSLKPEDTAVYYCAARYRRYSTSRYYYWGQGTQVTVSS” the “polyreactivity (PSR sort gate)” value was “high polyreactivity”. With “QVQLVESGGGLVQAGGSLRLSCAASGSIFYFYAMGWYRQAPGKERELVAAISFSGTRTYYADSVKGRFTISRDNAKNTVYLQRNSLKPEDTAVYYCNAVAYNYPRTYDYWGPGTQVTVSS” the “polyreactivity (PSR sort gate)” value was “high polyreactivity”. For “QVQLVESGGGLVQAGGSLRLSCAASGSIFYFYAMGWYRQAPGKERELVAAISRSVGSTNYADSVKGRFTISRDNAKNTVYLQMNSLKPEDTAVYYCAARRYGAYYWGQGTQVTVSS”, the “polyreactivity (PSR sort gate)” value was “high polyreactivity”. In the case of “QVQLVESGGGLVQAGGSLRLSCAASGSIFYFYAMGWYRQAPGKERELVAAITSGGSTYYADSVEGRFTISRDNAKNTVYLQMNSLKPEDTAVYYCNAVSSYGYDYWGQGTQVTVSS”, the “polyreactivity (PSR sort gate)” value is reported as “high polyreactivity”. For “QVQLVESGGGLVQAGGSLRLSCAASGSIFYFYDMGWYRQAPGKERELVAAISLDDGGTYYADSVKGRFTISRDNAKNTVYLQMNSLKPEDTAVYYCAADYYYWYQIYDYWGQGTQVTVSS”, the “polyreactivity (PSR sort gate)” value was “high polyreactivity”. With “QVQLVESGGGLVQAGGSLRLSCAASGSIFYFYTMGWYRQAPGKERELVASITYSGGRTYYADSVKGRFTISRDNAKNSVYLQMNSLKPEDTAVYYCAVRGYRRYWGQGTQVTVSS” the “polyreactivity (PSR sort gate)” value was “high polyreactivity”. For “QVQLVESGGGLVQAGGSLRLSCAASGSIFYGNAMGWYRQAPGKERELVAAISKRGGSTYYADSVKGRFTISRDNAKNTVYLQMNSLIPEDTAVYYCDKGSAGHTEYYYWGQGTQVTVSS”, the “polyreactivity (PSR sort gate)” value was “high polyreactivity”. For “QVQLVESGGGLVQAGGSLRLSCAASGSIFYGNAMGWYRQAPGKERELVAAISYRGVRTYYADSVKGRFTISRDNAKNTVYLQMNSLKPEDTAVYYCAATQGYRREYDYWGQGTQVTVSS”, the “polyreactivity (PSR sort gate)” value was “high polyreactivity”. With “QVQLVESGGGLVQAGGSLRLSCAASGSIFYGNTMGWYRQAPGKERELVAAIDYRGDSTYYADSVKGRFTISRDNAKNTVYLQMNSLKPEDTAVYYCAADQTPFGQVYYGTLSIRDYWGQGTQVTVSS” the “polyreactivity (PSR sort gate)” value was “low polyreactivity”. In the case of “QVQLVESGGGLVQAGGSLRLSCAASGSIFYGNTMGWYRQAPGKERELVAAISSGGGSTYYADSVKGRFTISRDNAKNTFYSKMNSMKPEETAVYYCAKRTYKQASGYWYDSWGQGTKVTVSS”, the “polyreactivity (PSR sort gate)” value is reported as “high polyreactivity”. For “QVQLVESGGGLVQAGGSLRLSCAASGSIFYGYAMGWYRPAPGKERELVAAINWSGGGTYYADSVKGRFTISRDNAKNTVYLQMNSLKPEDTAVYYCAAGHVVRRPYLIYDYWGQGTQVTVSS”, the “polyreactivity (PSR sort gate)” value was “high polyreactivity”. For “QVQLVESGGGLVQAGGSLRLSCAASGSIFYGYAMGWYRQAPGKERELVAAINWSGGGTYYADSVKGRFTISRDNAKNTVYLQMNSLKPEDTAVYYCAAGHVVRRPYLIYDYWGQGTQVTVSS”, the “polyreactivity (PSR sort gate)” value was “high polyreactivity”. With “QVQLVESGGGLVQAGGSLRLSCAASGSIFYGYAMGWYRQAPGKERELVAAITSGGRTYYADSVKGRFTISRDNAKNTVYLQMNSLKPEDTAVYYCNKLNYWSVRYEYWGQGTQVTVSS” the “polyreactivity (PSR sort gate)” value was “high polyreactivity”. For “QVQLVESGGGLVQAGGSLRLSCAASGSIFYGYAMGWYRQAPGKERELVARITGSGGDTSYADSVKGRFTISRDNAKNTVYLQMNSLKPEDTAVYYCAKRGYHFLTKYDYWGQGTQVTVSS”, the “polyreactivity (PSR sort gate)” value was “low polyreactivity”. With “QVQLVESGGGLVQAGGSLRLSCAASGSIFYGYAMGWYRQAPGRERELVAAIRYRGGRTDYGDSVKGRFTISRDNAKKTVYLQMNSLKPEDTAVYYCAKDLIRYGYLTYVYWGQGTQVTVSS” the “polyreactivity (PSR sort gate)” value was “high polyreactivity”. With “QVQLVESGGGLVQAGGSLRLSCAASGSIFYGYAMGWYRQAPRKERELVAAISSSGGSTYYADSVKGRFTISRDTAKNTVYLQMNSLKPEDTAVSYCARSRSYWGIVYGRYDYWGQGTQVTVSS” the “polyreactivity (PSR sort gate)” value was “high polyreactivity”. With “QVQLVESGGGLVQAGGSLRLSCAASGSIFYGYDMGWYRQAPGKERELVATISWSSGSSTYYADSVKGRFTISRDNAKNTVYLQMNSLKPEDTAVYYCAVDFAIGYRYLGRVDYWGQGTQVTVSS” the “polyreactivity (PSR sort gate)” value was “low polyreactivity”. For “QVQLVESGGGLVQAGGSLRLSCAASGSIFYGYDMGWYRQAPGKERELVATISWSSGSSTYYADSVKGRFTISRDNAKNTVYLQMNSLKPEYTAVYYCAVDFAIGYRYLGRVDYWGQGTQVTVSS”, the “polyreactivity (PSR sort gate)” value was “low polyreactivity”. In the case of “QVQLVESGGGLVQAGGSLRLSCAASGSIFYGYVMGWYRQARGKERELVAAITRSGSTYYADSVKGRFTISRDNAKNTVYLQMNSLKPEDTAVYYCAAAAKRKYYWGQGNQVTVSS”, the “polyreactivity (PSR sort gate)” value is reported as “high polyreactivity”. With “QVQLVESGGGLVQAGGSLRLSCAASGSIFYHNAMGWYRQAPGKERELVAAITWSGSTTYYADSVKGRFTISRDNAKKTVYLQMNSLKPEDTAVYYCNAGHRHGHYDYWGQGTQVTVSS” the “polyreactivity (PSR sort gate)” value was “low polyreactivity”. In the case of “QVQLVESGGGLVQAGGSLRLSCAASGSIFYHYAMGWYRQAPGKERELVAAISSGGSTSYADSVKGRFTFSRDNAKNTVYLQMNSLKPEDTAVYYCNARRIRSRSWKYDYWGQGTQVTVSS”, the “polyreactivity (PSR sort gate)” value is reported as “low polyreactivity”. For “QVQLVESGGGLVQAGGSLRLSCAASGSIFYIYAMGWYRKAPGKERELVASIDSGDSTNYADSVKGRFTISRDNAKNTVYLQMNSLKPEDTAVYYCNADTYSEITYYLYIGMDYWGQGTQVTVSS”, the “polyreactivity (PSR sort gate)” value was “low polyreactivity”. With “QVQLVESGGGLVQAGGSLRLSCAASGSIFYIYAMGWYRPAPGKEREFVAAITWTGGSTYYADSVKGRFTISRDNAKNTVYLQMNSLKPEDTAVYYCARATVGAWRKMYSWGQGTQVTVSS” the “polyreactivity (PSR sort gate)” value was “high polyreactivity”. For “QVQLVESGGGLVQAGGSLRLSCAASGSIFYIYAMGWYRQAPGKEREFVAAISWIGGSTYYADSVKGRFTISRDNAKNTVYLQMNSLKPEDTAVYYCAAETFTDYDYWGQGTQVTVSS”, the “polyreactivity (PSR sort gate)” value was “high polyreactivity”. With “QVQLVESGGGLVQAGGSLRLSCAASGSIFYIYAMGWYRQAPGKERELVAGIRNGGSTKYADSVKGRFTISRDNAKNTVYLQMNSLKPEDTAVYYCAARYYRPYTSSWAHNYRLDDWGQGSQVTVSS” the “polyreactivity (PSR sort gate)” value was “high polyreactivity”. In the case of “QVQLVESGGGLVQAGGSLRLSCAASGSIFYIYVMGWYRQAPGKERELVAAISSGGTTNYADSVKGRFTISRDNAKNTVYLQMNSLIPEDTAVYYCAADVLIARYPGYSYEYWGQGTQVTVSS”, the “polyreactivity (PSR sort gate)” value is reported as “low polyreactivity”. For “QVQLVESGGGLVQAGGSLRLSCAASGSIFYKNAMGWYRQAPGKERELVAAISYSGGSTYYADSVKGRFTISRDNAKNTVYLQMNSLKPEDTAVYYCAAKGGAWGQGTQVTVSS”, the “polyreactivity (PSR sort gate)” value was “high polyreactivity”. In the case of “QVQLVESGGGLVQAGGSLRLSCAASGSIFYLNAMGWYRPAPGKERELVAAIRWSGGSTRYADSVKGRFTISRDNAKITVYLQLNSLKPEDTAVYSCAADTYVYTLGRYYYWGQGTQVTVSS”, the “polyreactivity (PSR sort gate)” value is reported as “high polyreactivity”. For “QVQLVESGGGLVQAGGSLRLSCAASGSIFYLNAMGWYRQAPGKERELDAAIRWSGGSTRYADSVKGRFTISRDNAKNTVYLQMNSLKPEDTAVYYCAKYNPVLVYHWWYYYWGQGTQVTVSS”, the “polyreactivity (PSR sort gate)” value was “high polyreactivity”. For “QVQLVESGGGLVQAGGSLRLSCAASGSIFYLYAMGWYRPAPGKERELVAAISRSGASTYYADSVKGRFTISRDNAKNTVYLQMNSLKPEDTAVYYCAAYKIWGRVRYDYWGQGTQVTVSS”, the “polyreactivity (PSR sort gate)” value was “low polyreactivity”. With “QVQLVESGGGLVQAGGSLRLSCAASGSIFYLYAMGWYRQAPGKESELVAAITSGDSTTYADSVKWRFTISRDYAKNTVYLQMNSLKPEDTAVYYCAADWPGLVGYHNSAENDYWGQGTQVTVSS” the “polyreactivity (PSR sort gate)” value was “low polyreactivity”. With “QVQLVESGGGLVQAGGSLRLSCAASGSIFYNAMGWYRQAPGKERELVAAISYRGGRTYYADSVKGRFTISRDNAKNTVYLQMNSLKPEDTAVYYCAADSTVGRYPYDYWGPGTQVTVSS” the “polyreactivity (PSR sort gate)” value was “high polyreactivity”. With “QVQLVESGGGLVQAGGSLRLSCAASGSIFYNNAMGWYRQAPGKERELVATISDGGGSTYYADSVKGRFTISRDNAKNTVYLQMNSLKPEDTAVYYCAAPYYWGQGTQVTVSS” the “polyreactivity (PSR sort gate)” value was “low polyreactivity”. For “QVQLVESGGGLVQAGGSLRLSCAASGSIFYNNVMGWYRQAPGKERELVAVISGGGSTNYADSVKGRFTISRDNAKNNVYLHMNSLKREDTAVYYCAARGRYSYGDRYEYWGQATQVTVSS”, the “polyreactivity (PSR sort gate)” value was “low polyreactivity”. With “QVQLVESGGGLVQAGGSLRLSCAASGSIFYNTMGWYRQAPGKERELVAAITSGGSTYYADSVKGRFTISRDNAKNTVYLQMNSLKPEDTAVYYCAAESYYCGYQWLYFEYGYWGQGTQVTVSS” the “polyreactivity (PSR sort gate)” value was “low polyreactivity”.
